Here are results for one substance from article PMC4294473.

For the assay, the target named is recombinant human P301S 0N4R Tau (human). Nature of the assay: co-sedimentation; cell seeding assay: HEK293T cells expressing P301S 1N4R Tau exposed 3 h to rising concentrations of heparin-assembled, sonicated recombinant Tau aggregates (Sarkosyl-insoluble), 3 days; Sarkosyl-insoluble pellet blotted with HT7.

A value given as a limit tells only on which side of the number the result lay.

“human P301S 1N4R Tau expressed in HEK293T cells (natural protein)”: the fold more seed needed than of TgP301S Tau aggregates for equivalent seeding was greater than 10 fold and the fold more seed needed than of TgP301S Tau seed for equivalent Sarkosyl-insoluble Tau worked out at 50 fold.
